Target: recombinant SSA (streptococcal superantigen SSA of S. pyogenes HKU16, without the predicted signal peptide) (S. pyogenes HKU16)

“recombinant SSA (streptococcal superantigen SSA of S. pyogenes HKU16, without the predicted signal peptide) (natural protein)” was tested, and the stoichiometry N was 2.
